Measurements from patent publication US20250340643A1 (AstraZeneca / MedImmune, published 2025).
Like-named read-outs stand apart in the source and are kept apart here.

T1: CTLA4 on the cells of the reporter gene bioassay (human, UniProt P16410 36-223)
T1 sequence (looked up): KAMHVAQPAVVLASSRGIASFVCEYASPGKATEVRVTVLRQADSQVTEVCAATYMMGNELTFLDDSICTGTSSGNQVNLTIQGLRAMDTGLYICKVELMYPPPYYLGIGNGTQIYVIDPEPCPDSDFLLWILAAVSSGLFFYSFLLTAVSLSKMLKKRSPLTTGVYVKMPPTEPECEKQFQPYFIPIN


Legend:
[1] = target: T1, CTLA4 on the cells of the reporter gene …; test: cell-based or functional assay
[2] = target: T1, CTLA4 on the cells of the reporter gene …; test: cell-based or functional assay; remark: listed apart in the source
recombinant FcRn = target: T2, recombinant FcRn (UniProt P55899 24-297; P61769 21-119, limits assumed); test: SPR, recombinant FcRn immobilized on the sensor; relative to Reference Standard
T2 construct: also called Neonatal Fc Receptor
T2 sequence (P55899 24-297 limits assumed, form in doubt, chain 1 of 2): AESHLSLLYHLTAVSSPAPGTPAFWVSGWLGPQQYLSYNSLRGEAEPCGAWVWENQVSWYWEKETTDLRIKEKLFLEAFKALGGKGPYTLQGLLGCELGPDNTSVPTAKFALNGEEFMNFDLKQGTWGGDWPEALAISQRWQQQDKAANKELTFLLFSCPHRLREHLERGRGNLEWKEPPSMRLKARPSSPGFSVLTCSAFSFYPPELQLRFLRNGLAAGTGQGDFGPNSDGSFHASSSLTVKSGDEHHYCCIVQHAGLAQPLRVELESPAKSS
T2 sequence (P61769 21-119 limits assumed, form in doubt, chain 2 of 2): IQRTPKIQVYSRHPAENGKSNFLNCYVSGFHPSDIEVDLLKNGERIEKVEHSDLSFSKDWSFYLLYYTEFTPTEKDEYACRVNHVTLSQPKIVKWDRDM
Description: A surface plasmon resonance binding assay was used to measure FcRn binding. This method is based on the ability of the test sample to bind to recombinant FcRn that has been immobilized on an SPR sensor surface. A reference flow cell was created using the same standard amine coupling procedure without the addition of FcRn.

| Binder | Relative Potency (%) [1] [%] | Relative Potency (%) [2] [%] | Relative FcRn Binding (%) (recombinant FcRn) |
| --- | --- | --- | --- |
| Tremelimumab incubated in human serum at 37° C., week 4 (antibody, human IgG2, kappa, V domains shown, Asn-30 deamidated in 34.8% (peptide mapping)) VH: QVQLVESGGGVVQPGRSLRLSCAASGFTFSSYGMHWVRQAPGKGLEWVAVIWYDGSNKYYADSVKGRFTISRDNSKNTLYLQMNSLRAEDTAVYYCARDPRGATLYYYYYGMDVWGQGTTVTVSS VL: DIQMTQSPSSLSASVGDRVTITCRASQSINSYLDWYQQKPGKAPKLLIYAASSLQSGVPSRFSGSGSGTDFTLTISSLQPEDFATYYCQQYYSTPFTFGPGTKVEIKR | 76 |  |  |
| Tremelimumab incubated in PBS at 37° C., week 3 (antibody, human IgG2, kappa, V domains shown, Asn-30 deamidated in 27.0% (peptide mapping)) VH: QVQLVESGGGVVQPGRSLRLSCAASGFTFSSYGMHWVRQAPGKGLEWVAVIWYDGSNKYYADSVKGRFTISRDNSKNTLYLQMNSLRAEDTAVYYCARDPRGATLYYYYYGMDVWGQGTTVTVSS VL: DIQMTQSPSSLSASVGDRVTITCRASQSINSYLDWYQQKPGKAPKLLIYAASSLQSGVPSRFSGSGSGTDFTLTISSLQPEDFATYYCQQYYSTPFTFGPGTKVEIKR | 93 |  |  |
| Tremelimumab incubated in PBS at 37° C., week 0 (antibody, human IgG2, kappa, V domains shown, Asn-30 deamidated in 2.2% (peptide mapping)) VH: QVQLVESGGGVVQPGRSLRLSCAASGFTFSSYGMHWVRQAPGKGLEWVAVIWYDGSNKYYADSVKGRFTISRDNSKNTLYLQMNSLRAEDTAVYYCARDPRGATLYYYYYGMDVWGQGTTVTVSS VL: DIQMTQSPSSLSASVGDRVTITCRASQSINSYLDWYQQKPGKAPKLLIYAASSLQSGVPSRFSGSGSGTDFTLTISSLQPEDFATYYCQQYYSTPFTFGPGTKVEIKR | 92 |  |  |
| Tremelimumab incubated in PBS at 37° C., week 1 (antibody, human IgG2, kappa, V domains shown, Asn-30 deamidated in 8.8% (peptide mapping)) VH: QVQLVESGGGVVQPGRSLRLSCAASGFTFSSYGMHWVRQAPGKGLEWVAVIWYDGSNKYYADSVKGRFTISRDNSKNTLYLQMNSLRAEDTAVYYCARDPRGATLYYYYYGMDVWGQGTTVTVSS VL: DIQMTQSPSSLSASVGDRVTITCRASQSINSYLDWYQQKPGKAPKLLIYAASSLQSGVPSRFSGSGSGTDFTLTISSLQPEDFATYYCQQYYSTPFTFGPGTKVEIKR | 96 |  |  |
| Tremelimumab incubated in human serum at 37° C., week 2 (antibody, human IgG2, kappa, V domains shown, Asn-30 deamidated in 22.9% (peptide mapping)) VH: QVQLVESGGGVVQPGRSLRLSCAASGFTFSSYGMHWVRQAPGKGLEWVAVIWYDGSNKYYADSVKGRFTISRDNSKNTLYLQMNSLRAEDTAVYYCARDPRGATLYYYYYGMDVWGQGTTVTVSS VL: DIQMTQSPSSLSASVGDRVTITCRASQSINSYLDWYQQKPGKAPKLLIYAASSLQSGVPSRFSGSGSGTDFTLTISSLQPEDFATYYCQQYYSTPFTFGPGTKVEIKR | 91 |  |  |
| Tremelimumab incubated in PBS at 37° C., week 5 (antibody, human IgG2, kappa, V domains shown, Asn-30 deamidated in 44.7% (peptide mapping)) VH: QVQLVESGGGVVQPGRSLRLSCAASGFTFSSYGMHWVRQAPGKGLEWVAVIWYDGSNKYYADSVKGRFTISRDNSKNTLYLQMNSLRAEDTAVYYCARDPRGATLYYYYYGMDVWGQGTTVTVSS VL: DIQMTQSPSSLSASVGDRVTITCRASQSINSYLDWYQQKPGKAPKLLIYAASSLQSGVPSRFSGSGSGTDFTLTISSLQPEDFATYYCQQYYSTPFTFGPGTKVEIKR | 76 |  |  |
| Tremelimumab incubated in human serum at 37° C., week 1 (antibody, human IgG2, kappa, V domains shown, Asn-30 deamidated in 11.1% (peptide mapping)) VH: QVQLVESGGGVVQPGRSLRLSCAASGFTFSSYGMHWVRQAPGKGLEWVAVIWYDGSNKYYADSVKGRFTISRDNSKNTLYLQMNSLRAEDTAVYYCARDPRGATLYYYYYGMDVWGQGTTVTVSS VL: DIQMTQSPSSLSASVGDRVTITCRASQSINSYLDWYQQKPGKAPKLLIYAASSLQSGVPSRFSGSGSGTDFTLTISSLQPEDFATYYCQQYYSTPFTFGPGTKVEIKR | 98 |  |  |
| Tremelimumab incubated in PBS at 37° C., week 2 (antibody, human IgG2, kappa, V domains shown, Asn-30 deamidated in 18.5% (peptide mapping)) VH: QVQLVESGGGVVQPGRSLRLSCAASGFTFSSYGMHWVRQAPGKGLEWVAVIWYDGSNKYYADSVKGRFTISRDNSKNTLYLQMNSLRAEDTAVYYCARDPRGATLYYYYYGMDVWGQGTTVTVSS VL: DIQMTQSPSSLSASVGDRVTITCRASQSINSYLDWYQQKPGKAPKLLIYAASSLQSGVPSRFSGSGSGTDFTLTISSLQPEDFATYYCQQYYSTPFTFGPGTKVEIKR | 83 |  |  |
| Tremelimumab incubated in human serum at 37° C., week 3 (antibody, human IgG2, kappa, V domains shown, Asn-30 deamidated in 33.9% (peptide mapping)) VH: QVQLVESGGGVVQPGRSLRLSCAASGFTFSSYGMHWVRQAPGKGLEWVAVIWYDGSNKYYADSVKGRFTISRDNSKNTLYLQMNSLRAEDTAVYYCARDPRGATLYYYYYGMDVWGQGTTVTVSS VL: DIQMTQSPSSLSASVGDRVTITCRASQSINSYLDWYQQKPGKAPKLLIYAASSLQSGVPSRFSGSGSGTDFTLTISSLQPEDFATYYCQQYYSTPFTFGPGTKVEIKR | 82 |  |  |
| Tremelimumab incubated in PBS at 37° C., week 4 (antibody, human IgG2, kappa, V domains shown, Asn-30 deamidated in 37.7% (peptide mapping)) VH: QVQLVESGGGVVQPGRSLRLSCAASGFTFSSYGMHWVRQAPGKGLEWVAVIWYDGSNKYYADSVKGRFTISRDNSKNTLYLQMNSLRAEDTAVYYCARDPRGATLYYYYYGMDVWGQGTTVTVSS VL: DIQMTQSPSSLSASVGDRVTITCRASQSINSYLDWYQQKPGKAPKLLIYAASSLQSGVPSRFSGSGSGTDFTLTISSLQPEDFATYYCQQYYSTPFTFGPGTKVEIKR | 76 |  |  |
| Tremelimumab incubated in human serum at 37° C., week 0 (antibody, human IgG2, kappa, V domains shown, Asn-30 deamidated in 3.4% (peptide mapping)) VH: QVQLVESGGGVVQPGRSLRLSCAASGFTFSSYGMHWVRQAPGKGLEWVAVIWYDGSNKYYADSVKGRFTISRDNSKNTLYLQMNSLRAEDTAVYYCARDPRGATLYYYYYGMDVWGQGTTVTVSS VL: DIQMTQSPSSLSASVGDRVTITCRASQSINSYLDWYQQKPGKAPKLLIYAASSLQSGVPSRFSGSGSGTDFTLTISSLQPEDFATYYCQQYYSTPFTFGPGTKVEIKR | 106 |  |  |
| Tremelimumab incubated in human serum at 37° C., week 5 (antibody, human IgG2, kappa, V domains shown, Asn-30 deamidated in 37.7% (peptide mapping)) VH: QVQLVESGGGVVQPGRSLRLSCAASGFTFSSYGMHWVRQAPGKGLEWVAVIWYDGSNKYYADSVKGRFTISRDNSKNTLYLQMNSLRAEDTAVYYCARDPRGATLYYYYYGMDVWGQGTTVTVSS VL: DIQMTQSPSSLSASVGDRVTITCRASQSINSYLDWYQQKPGKAPKLLIYAASSLQSGVPSRFSGSGSGTDFTLTISSLQPEDFATYYCQQYYSTPFTFGPGTKVEIKR | 80 |  |  |
| Tremelimumab, chemical oxidation study (100 ppm H2O2), Control t = 0 (antibody, human IgG2, kappa, oxidation by peptide mapping: Met-256 1.2%, Met-362 0.9%, Met-401 1.4%, Met-432 0.2%) heavy: QVQLVESGGGVVQPGRSLRLSCAASGFTFSSYGMHWVRQAPGKGLEWVAVIWYDGSNKYYADSVKGRFTISRDNSKNTLYLQMNSLRAEDTAVYYCARDPRGATLYYYYYGMDVWGQGTTVTVSSASTKGPSVFPLAPCSRSTSESTAALGCLVKDYFPEPVTVSWNSGALTSGVHTFPAVLQSSGLYSLSSVVTVPSSNFGTQTYTCNVDHKPSNTKVDKTVERKCCVECPPCPAPPVAGPSVFLFPPKPKDTLMISRTPEVTCVVVDVSHEDPEVQFNWYVDGVEVHNAKTKPREEQFNSTFRVVSVLTVVHQDWLNGKEYKCKVSNKGLPAPIEKTISKTKGQPREPQVYTLPPSREEMTKNQVSLTCLVKGFYPSDIAVEWESNGQPENNYKTTPPMLDSDGSFFLYSKLTVDKSRWQQGNVFSCSVMHEALHNHYTQKSLSLSPGK light: not shown |  | 100 | 89 |
| Tremelimumab incubated with 100 ppm H2O2 for 2 days (antibody, human IgG2, kappa, oxidation by peptide mapping: Met-256 55.8%, Met-362 17.8%, Met-401 44.6%, Met-432 20.7%) heavy: QVQLVESGGGVVQPGRSLRLSCAASGFTFSSYGMHWVRQAPGKGLEWVAVIWYDGSNKYYADSVKGRFTISRDNSKNTLYLQMNSLRAEDTAVYYCARDPRGATLYYYYYGMDVWGQGTTVTVSSASTKGPSVFPLAPCSRSTSESTAALGCLVKDYFPEPVTVSWNSGALTSGVHTFPAVLQSSGLYSLSSVVTVPSSNFGTQTYTCNVDHKPSNTKVDKTVERKCCVECPPCPAPPVAGPSVFLFPPKPKDTLMISRTPEVTCVVVDVSHEDPEVQFNWYVDGVEVHNAKTKPREEQFNSTFRVVSVLTVVHQDWLNGKEYKCKVSNKGLPAPIEKTISKTKGQPREPQVYTLPPSREEMTKNQVSLTCLVKGFYPSDIAVEWESNGQPENNYKTTPPMLDSDGSFFLYSKLTVDKSRWQQGNVFSCSVMHEALHNHYTQKSLSLSPGK light: not shown |  | 88 | 37 |
| Tremelimumab incubated with 100 ppm H2O2 for 25 hours (antibody, human IgG2, kappa, oxidation by peptide mapping: Met-256 35.5%, Met-362 9.7%, Met-401 28.7%, Met-432 7.8%) heavy: QVQLVESGGGVVQPGRSLRLSCAASGFTFSSYGMHWVRQAPGKGLEWVAVIWYDGSNKYYADSVKGRFTISRDNSKNTLYLQMNSLRAEDTAVYYCARDPRGATLYYYYYGMDVWGQGTTVTVSSASTKGPSVFPLAPCSRSTSESTAALGCLVKDYFPEPVTVSWNSGALTSGVHTFPAVLQSSGLYSLSSVVTVPSSNFGTQTYTCNVDHKPSNTKVDKTVERKCCVECPPCPAPPVAGPSVFLFPPKPKDTLMISRTPEVTCVVVDVSHEDPEVQFNWYVDGVEVHNAKTKPREEQFNSTFRVVSVLTVVHQDWLNGKEYKCKVSNKGLPAPIEKTISKTKGQPREPQVYTLPPSREEMTKNQVSLTCLVKGFYPSDIAVEWESNGQPENNYKTTPPMLDSDGSFFLYSKLTVDKSRWQQGNVFSCSVMHEALHNHYTQKSLSLSPGK light: not shown |  | 83 | 91 |
| Tremelimumab incubated with 100 ppm H2O2 for 8 hours (antibody, human IgG2, kappa, oxidation by peptide mapping: Met-256 13.4%, Met-362 3.9%, Met-401 13.3%, Met-432 2.4%) heavy: QVQLVESGGGVVQPGRSLRLSCAASGFTFSSYGMHWVRQAPGKGLEWVAVIWYDGSNKYYADSVKGRFTISRDNSKNTLYLQMNSLRAEDTAVYYCARDPRGATLYYYYYGMDVWGQGTTVTVSSASTKGPSVFPLAPCSRSTSESTAALGCLVKDYFPEPVTVSWNSGALTSGVHTFPAVLQSSGLYSLSSVVTVPSSNFGTQTYTCNVDHKPSNTKVDKTVERKCCVECPPCPAPPVAGPSVFLFPPKPKDTLMISRTPEVTCVVVDVSHEDPEVQFNWYVDGVEVHNAKTKPREEQFNSTFRVVSVLTVVHQDWLNGKEYKCKVSNKGLPAPIEKTISKTKGQPREPQVYTLPPSREEMTKNQVSLTCLVKGFYPSDIAVEWESNGQPENNYKTTPPMLDSDGSFFLYSKLTVDKSRWQQGNVFSCSVMHEALHNHYTQKSLSLSPGK light: not shown |  | 88 | 93 |
